Assay [1] has as its target T1, recombinant furin, biotinylated (UniProt P09958 27-794, biotin). The assay can be described thus: BLI. (In general: Biolayer interferometry detects binding as a change in optical thickness at a sensor tip.)
Assay [2] deals with T1, recombinant furin, biotinylated. The assay can be described thus: BLI. The source holds these as a separate data set.

T1 sequence (P09958 108-715): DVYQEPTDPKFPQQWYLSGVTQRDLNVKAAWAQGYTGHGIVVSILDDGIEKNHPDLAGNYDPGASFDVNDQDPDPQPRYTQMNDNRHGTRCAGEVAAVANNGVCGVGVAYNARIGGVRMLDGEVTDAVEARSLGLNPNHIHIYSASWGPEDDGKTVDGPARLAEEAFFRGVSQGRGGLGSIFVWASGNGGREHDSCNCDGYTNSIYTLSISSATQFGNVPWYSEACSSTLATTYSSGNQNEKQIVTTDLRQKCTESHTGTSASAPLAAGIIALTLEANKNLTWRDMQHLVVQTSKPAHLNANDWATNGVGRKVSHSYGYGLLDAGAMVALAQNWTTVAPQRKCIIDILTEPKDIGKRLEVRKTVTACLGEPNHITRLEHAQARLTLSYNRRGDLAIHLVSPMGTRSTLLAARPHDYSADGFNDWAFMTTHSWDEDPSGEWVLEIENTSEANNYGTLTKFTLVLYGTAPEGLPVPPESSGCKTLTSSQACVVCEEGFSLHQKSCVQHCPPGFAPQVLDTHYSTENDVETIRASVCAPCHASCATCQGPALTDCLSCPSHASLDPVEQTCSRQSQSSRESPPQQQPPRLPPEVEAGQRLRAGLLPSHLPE

B1: farletuzumab-FuG1 (antibody, V domains shown)
VH: EVQLVESGGGVVQPGRSLRLSCSASGFTFSGYGLSWVRQAPGKGLEWVAMISSGGSYTYYADSVKGRFAISRDNAKNTLFLQMDSLRPEDTGVYFCARHGDDPAWFAYWGQGTPVTVSS
VL: DIQLTQSPSSLSASVGDRVTITCSVSSSISSNNLHWYQQKPGKAPKPWIYGTSNLASGVPSRFSGSGSGTDYTFTISSLQPEDIATYYCQQWSSYPYMYTFGQGTKVEIK
For orientation: Kd means the equilibrium constant for the complex coming apart. What is called koff is the rate constant with which the complex falls apart. For B1, the Kd in assay [1] was found to be 33 nM. Also, the koff in assay [2] is 8.65e-05 s⁻¹.

B2: farletuzumab-cFuG1 (antibody, V domains shown)
VH: B1 VH
VL: B1 VL
Consider B2, for which the Kd in assay [1] was 7.5 nM. For the same molecule, the koff in assay [2] was 0.000312 s⁻¹.
